Residue numbers refer to the chain shown, from its start. One block for each binder: values may come before it.
Columns and labels:
hCD137-mFc-Avi [1] = target: T1, hCD137-mFc-Avi (human); experiment: SPR, mAb^2 at 1 nM on CD137 against 1 µM on related receptors
T1 construct: Dimer; a biotinylated version was used where the text says so; also called human CD137-mFc-Avi; hCD137-mFc-Avi-Bio
From the text: CD137 and OX40 belongs to the tumour necrosis factor receptor superfamily (TNFRSF) of cytokine receptors (Moran et al., 2013).
Briefly, flow cells on CM5 chips were immobilised with approx. 1000 RU of either human CD137-mFc-Avi (Table 3), OX40-mFc (Table 2), recombinant human TNFRSF1A-Fc, recombinant human TNFRSF1B-Fc, recombinant human GITR-Fc, recombinant human NGFR-Fc, recombinant human CD40-Fc or recombinant human DR6-Fc. Flow cell 1 was left for blank immobilisation. The five mAb² were diluted to 1 μM and 1 nM in 1×HBS-EP buffer (GE Healthcare, product code BR100188), allowed to flow over the chip for 3 min and then allowed to dissociate for 4 minutes. A 30-second injection of 10 mM glycine pH 1.5 was used for regeneration. […] Binding levels were determined at the end of the association phase and compared.

[2] = target: T2, human OX40 expressed on DO11.10 cells (DO11.10-hOX40) (human, UniProt P43489 29-277); experiment: cell-based or functional assay
T2 sequence: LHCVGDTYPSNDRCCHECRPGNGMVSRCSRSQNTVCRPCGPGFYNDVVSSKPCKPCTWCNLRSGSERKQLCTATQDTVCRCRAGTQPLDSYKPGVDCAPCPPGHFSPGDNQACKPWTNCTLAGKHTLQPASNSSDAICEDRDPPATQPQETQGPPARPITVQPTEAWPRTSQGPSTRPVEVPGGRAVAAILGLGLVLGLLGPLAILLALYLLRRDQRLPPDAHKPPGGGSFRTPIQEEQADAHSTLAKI

[3] = target: T3, human CD137 expressed on DO11.10 cells (DO11.10-hCD137) (human, UniProt Q07011 24-255); experiment: cell-based or functional assay
Target sequence in this assay (Q07011 24-255): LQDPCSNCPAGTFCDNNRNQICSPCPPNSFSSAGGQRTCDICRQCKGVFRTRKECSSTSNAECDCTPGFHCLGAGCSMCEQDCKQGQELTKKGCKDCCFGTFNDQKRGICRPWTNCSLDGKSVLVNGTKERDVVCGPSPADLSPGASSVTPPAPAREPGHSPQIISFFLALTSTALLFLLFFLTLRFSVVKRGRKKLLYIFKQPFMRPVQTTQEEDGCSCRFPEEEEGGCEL

hOX40-mFc = target: T4, hOX40-mFc (human); experiment: SPR, antigen immobilised on CM5, mAb^2 at 1 nM and 1 µM
T4 construct: Dimeric; also called human OX40-mFc
T4 chain: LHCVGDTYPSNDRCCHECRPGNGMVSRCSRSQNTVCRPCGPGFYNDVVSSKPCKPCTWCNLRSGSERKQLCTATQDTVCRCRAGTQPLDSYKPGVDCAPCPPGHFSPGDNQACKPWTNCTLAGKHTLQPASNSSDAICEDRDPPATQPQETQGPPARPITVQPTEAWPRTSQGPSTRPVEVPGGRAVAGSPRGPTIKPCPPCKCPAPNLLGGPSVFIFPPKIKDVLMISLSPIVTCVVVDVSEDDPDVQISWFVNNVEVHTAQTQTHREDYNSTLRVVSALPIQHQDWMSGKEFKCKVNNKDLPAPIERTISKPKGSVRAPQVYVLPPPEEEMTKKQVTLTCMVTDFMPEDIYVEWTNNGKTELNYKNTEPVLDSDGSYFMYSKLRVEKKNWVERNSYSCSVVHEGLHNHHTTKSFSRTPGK

hCD137-mFc-Avi [4] = target: T1, hCD137-mFc-Avi; experiment: as above
[5] = target: T5, mouse OX40 expressed on DO11.10 cells (DO11.10-mOX40) (mouse, UniProt P47741 20-272); experiment: cell-based or functional assay
T5 sequence: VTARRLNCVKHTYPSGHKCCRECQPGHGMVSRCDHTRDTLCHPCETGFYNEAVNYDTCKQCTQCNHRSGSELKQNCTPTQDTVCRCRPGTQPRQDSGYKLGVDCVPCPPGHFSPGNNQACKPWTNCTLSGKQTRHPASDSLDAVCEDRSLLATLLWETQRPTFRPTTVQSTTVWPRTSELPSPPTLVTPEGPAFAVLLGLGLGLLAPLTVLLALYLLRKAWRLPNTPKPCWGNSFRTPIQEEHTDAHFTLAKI

[6] = target: T5, mouse OX40 expressed on DO11.10 cells …; experiment: flow cytometry on DO11.10 cells expressing the target
Procedure: (§1) The binding affinity of the FS20m-232-91AA/Lob12.3 mAb² for cell-expressed mouse OX40 and CD137 was determined using flow cytometry. […] DO11.10-mOX40, DO11.10-mCD137, or HEK cell suspensions were prepared in PBS+2% BSA (Sigma, A7906) and seeded at 4×10⁶ cell/ml with 50 μl/well in V-bottomed 96-well plates (Costar, 3897). 50 μl of the antibody dilutions were added to the wells containing cells (final volume 100 μl ) and incubated at 4° C. for 1 hour. […] The plates were washed and resuspended in 100 μl of PBS containing DAPI (Biotium, cat no 40043) at 1 μg/ml. The plates were analysed using a Canto II flow cytometer (BD Bioscience) and the data analysed using FlowJo. Dead cells were identified by their higher fluorescence on the UV (405 nm/450/50) channel and excluded from analysis. […] The GMFI data was fit using log (agonist) vs response (three parameters) in GraphPad Prism Software to generate EC₅₀ values.

[7] = target: T6, mouse CD137 expressed on DO11.10 cells (DO11.10-mCD137) (mouse, UniProt P20334 24-256); experiment: as above
T6 construct: also called CD137 on mouse T cells
T6 sequence (P20334 24-256): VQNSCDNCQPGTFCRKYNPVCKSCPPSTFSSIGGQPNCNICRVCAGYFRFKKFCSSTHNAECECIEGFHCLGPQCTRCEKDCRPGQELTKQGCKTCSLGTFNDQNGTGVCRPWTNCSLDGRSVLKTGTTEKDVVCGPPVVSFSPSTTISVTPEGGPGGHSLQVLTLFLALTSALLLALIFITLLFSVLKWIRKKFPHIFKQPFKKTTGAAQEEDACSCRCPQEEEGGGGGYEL
Procedure: as §1

[8] = target: T7, cynomolgus CD137 expressed on DO11.10 cells (DO11.10-cCD137) (cynomolgus monkey, UniProt Q07011 24-255 (human entry)); experiment: as above
T7 chain: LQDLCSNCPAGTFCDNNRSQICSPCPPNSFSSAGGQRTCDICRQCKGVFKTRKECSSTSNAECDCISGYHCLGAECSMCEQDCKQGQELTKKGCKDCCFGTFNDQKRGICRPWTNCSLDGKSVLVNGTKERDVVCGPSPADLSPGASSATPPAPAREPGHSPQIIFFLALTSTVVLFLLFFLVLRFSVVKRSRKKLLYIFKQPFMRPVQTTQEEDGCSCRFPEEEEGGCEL
Procedure: (§2) 50 μl of the antibody dilutions were added to the wells containing cells (final volume 100 μl) and incubated at 4° C. for 1 hour. […] The plates were washed and resuspended in 100 μl of PBS containing DAPI (Biotium, cat no 40043) at 1 μg/ml. The plates were analysed using a Canto II flow cytometer (BD Bioscience) and the data analysed using FlowJo. Dead cells were identified by their higher fluorescence on the UV (405 nm/450/50) channel and excluded from analysis. […] The GMFI data was fit using log (agonist) vs response (three parameters) in Graph Pad Prism Software to generate EC₅₀ values.

[9] = target: T3, human CD137 expressed on DO11.10 cells …; experiment: as above
Procedure: as §2

T1 sequence (chain, as listed by the source limits assumed): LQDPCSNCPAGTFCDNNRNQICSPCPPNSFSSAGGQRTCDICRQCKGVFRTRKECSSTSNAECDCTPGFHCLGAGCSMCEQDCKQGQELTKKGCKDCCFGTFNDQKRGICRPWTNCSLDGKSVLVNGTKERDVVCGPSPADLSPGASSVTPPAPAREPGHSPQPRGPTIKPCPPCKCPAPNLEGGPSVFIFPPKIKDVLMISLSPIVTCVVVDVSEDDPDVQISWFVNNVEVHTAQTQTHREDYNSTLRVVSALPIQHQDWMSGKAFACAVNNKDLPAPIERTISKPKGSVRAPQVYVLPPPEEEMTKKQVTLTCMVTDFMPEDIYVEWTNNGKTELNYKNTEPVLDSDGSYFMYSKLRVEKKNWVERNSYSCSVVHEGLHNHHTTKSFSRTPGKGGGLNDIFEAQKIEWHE

specificity for CD137 over TNFRSF1A, TNFRSF1B, GITR, NGFR and CD40 (fold) (hCD137-mFc-Avi [1]): ~1000 fold
B1: FS20-22-49AA/FS30-10 (bispecific antibody, V domains shown)
VH: EVQLLESGGGLVQPGGSLRLSCAASGFTFSSYDMSWVRQAPGKGLEWVSDIDPTGSKTDYADSVKGRFTISRDNSKNTLYLQMNSLRAEDTAVYYCARDLMVYGFDYWGQGTLVTVSS
VL: EIVLTQSPGTLSLSPGERATLSCRASQSVSSSYLAWYQQKPGQAPRLLIYGASSRATGIPDRFSGSGSGTDFTLTISRLEPEDFAVYYCQQSYSYPVTFGQGTKVEIKR
notes: Parent mAb^2; derived by reversing the stated change

specificity for CD137 over TNFRSF1A, TNFRSF1B, GITR, NGFR and CD40 (fold) (hCD137-mFc-Avi [1]): ~1000 fold
B2: FS20-22-49AA/FS30-35 (bispecific antibody, V domains shown)
VH: EVQLLESGGGLVQPGGSLRLSCAASGFTFSAYNIHWVRQAPGKGLEWVSDISPYGGATNYADSVKGRFTISRDNSKNTLYLQMNSLRAEDTAVYYCARNLYELSAYSYGMDYWGQGTLVTVSS
VL: EIVLTQSPGTLSLSPGERATLSCRASQSVSSSYLAWYQQKPGQAPRLLIYGASSRATGIPDRFSGSGSGTDFTLTISRLEPEDFAVYYCQQYYYSSPITFGQGTKVEIKR
notes: as for B1

SEA assay (PBMC), hIL-2 max response, crosslinked [2]: 32200 pg/mL | SEA assay (PBMC), hIL-2 max response, no crosslinker [2]: 32400 pg/mL | SEA assay (PBMC), hIL-2 release EC50, crosslinked [2]: 0.14 nM | SEA assay (PBMC), hIL-2 release EC50, no crosslinker [2]: 0.09 nM | EC50 of mIL-2 release, DO11.10-hCD137 assay, crosslinked [3]: 5.1 nM | Emax of mIL-2 release, DO11.10-hCD137 assay, crosslinked [3]: 19800 pg/mL | binding result (hOX40-mFc): binds | binding result (hCD137-mFc-Avi [4]): binds
B3: FS20-22-49AA/FS30-35-14 (bispecific antibody, human IgG1, kappa, L234A L235A, V domains shown)
VH: B2 VH with M110A
VL: B2 VL
notes: IgG1 with LALA; also called OX40/CD137 mAb^2

mouse pan-T cell activation assay, mIL-2 release EC50, crosslinked [5]: 0.257 nM
B4: FS20m-232-91AA/4420 (antibody, human IgG1, kappa, L234A L235A)
heavy: EVKLDETGGGLVQPGRPMKLSCVASGFTFSDYWMNWVRQSPEKGLEWVAQIRNKPYNYETYYSDSVKGRFTISRDDSKSSVYLQMNNLRVEDMGIYYCTGSYYGMDYWGQGTSVTVSSASTKGPSVFPLAPSSKSTSGGTAALGCLVKDYFPEPVTVSWNSGALTSGVHTFPAVLQSSGLYSLSSVVTVPSSSLGTQTYICNVNHKPSNTKVDKKVEPKSCDKTHTCPPCPAPEAAGGPSVFLFPPKPKDTLMISRTPEVTCVVVDVSHEDPEVKFNWYVDGVEVHNAKTKPREEQYNSTYRVVSVLTVLHQDWLNGKEYKCKVSNKALPAPIEKTISKAKGQPREPQVYTLPPSRDELFDPMYYYNQVSLTCLVKGFYPSDIAVEWESNGEPLWDYKTTPPVLDSDGSFFLYSKLTVWRDRWEDGNVFSCSVMHEALHNHYTQKSLSLSPGK
light: DVVMTQTPLSLPVSLGDQASISCRSSQSLVHSNGNTYLRWYLQKPGQSPKVLIYKVSNRFSGVPDRFSGSGSGTDFTLKISRVEAEDLGVYFCSQSTHVPWTFGGGTKLEIKRTVAAPSVFIFPPSDEQLKSGTASVVCLLNNFYPREAKVQWKVDNALQSGNSQESVTEQDSKDSTYSLSSTLTLSKADYEKHKVYACEVTHQGLSSPVTKSFNRGEC

binding result [6]: no binding | binding result [7]: no binding | binding result [8]: no binding | binding result [9]: no binding
B5: G1/4420 (antibody, human IgG1, kappa)
heavy: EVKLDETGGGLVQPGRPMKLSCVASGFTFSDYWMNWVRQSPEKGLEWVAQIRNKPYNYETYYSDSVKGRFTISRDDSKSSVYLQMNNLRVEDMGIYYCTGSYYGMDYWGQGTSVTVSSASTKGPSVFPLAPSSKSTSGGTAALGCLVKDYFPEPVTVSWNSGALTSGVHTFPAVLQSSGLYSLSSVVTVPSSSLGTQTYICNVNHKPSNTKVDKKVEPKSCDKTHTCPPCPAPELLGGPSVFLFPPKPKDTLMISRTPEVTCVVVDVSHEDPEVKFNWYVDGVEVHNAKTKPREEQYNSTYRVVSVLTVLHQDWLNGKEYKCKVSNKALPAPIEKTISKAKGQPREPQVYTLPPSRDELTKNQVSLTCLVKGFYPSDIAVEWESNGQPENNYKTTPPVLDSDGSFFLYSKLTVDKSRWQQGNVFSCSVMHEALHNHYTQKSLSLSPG
light: B4 light
notes: also called anti-FITC antibody 4420 in IgG1 format; isotype control

binding result [7]: no binding
B6: FS20m-232-91AA/HEL D1.3 (antibody, V domains shown)
VH: QVQLQESGPGLVRPSQTLSLTCTVSGSTFSGYGVNWVRQPPGRGLEWIGMIWGDGNTDYNSALKSRVTMLVDTSKNQFSLRLSSVTAADTAVYYCARERDYRLDYWGQGSLVTVSS
VL: DIQMTQSPASLSASVGETVTITCRASGNIHNYLAWYQQKQGKSPQLLVYNAKTLADGVPSRFSGSGSGTQYSLKINSLQPEDFGSYYCQHFWSTPRTFGGGTKLEIKR
notes: also called OX40/HEL mock mAb^2

mouse pan-T cell activation assay, mIL-2 release EC50, crosslinked [5]: 2.41 nM
B7: G1AA/OX86 (antibody, human IgG1, kappa, L234A L235A, V domains shown)
VH: QVQLKESGPGLVQPSQTLSLTCTVSGFSLTGYNLHWVRQPPGKGLEWMGRMRYDGDTYYNSVLKSRLSISRDTSKNQVFLKMNSLQTDDTAIYYCTRDGRGDSFDYWGQGVMVTVSS
VL: DIVMTQGALPNPVPSGESASITCRSSQSLVYKDGQTYLNWFLQRPGQSPQLLTYWMSTRASGVSDRFSGSGSGTYFTLKISRVRAEDAGVYYCQQVREYPFTFGSGTKLEIKR

EC50 [6]: 0.538 nM | binding result [7]: no binding
B8: G1/OX86 (antibody, human IgG1, kappa, V domains shown)
VH: B7 VH with T57I
VL: B7 VL
notes: also called G1/0X86; anti-mouse OX40 mAb OX86 in a human IgG1 backbone

— patent US20220048996A1 (F STAR BETA, published 2022)
